One block for each molecule: values may come before it.
Legend:
[1] = molecular target: mouse IL-22 receptor (IL-22R1) on murine MIN6N8 β-cells and murine islets (mouse) (UniProt Q80XZ4); test: cell-based or functional assay
[2] = molecular target: T1, human IL-22 receptor (IL-22R1) on human LS174T cells and human islets (human) (UniProt Q8N6P7); test: cell-based or functional assay
T1 sequence (looked up): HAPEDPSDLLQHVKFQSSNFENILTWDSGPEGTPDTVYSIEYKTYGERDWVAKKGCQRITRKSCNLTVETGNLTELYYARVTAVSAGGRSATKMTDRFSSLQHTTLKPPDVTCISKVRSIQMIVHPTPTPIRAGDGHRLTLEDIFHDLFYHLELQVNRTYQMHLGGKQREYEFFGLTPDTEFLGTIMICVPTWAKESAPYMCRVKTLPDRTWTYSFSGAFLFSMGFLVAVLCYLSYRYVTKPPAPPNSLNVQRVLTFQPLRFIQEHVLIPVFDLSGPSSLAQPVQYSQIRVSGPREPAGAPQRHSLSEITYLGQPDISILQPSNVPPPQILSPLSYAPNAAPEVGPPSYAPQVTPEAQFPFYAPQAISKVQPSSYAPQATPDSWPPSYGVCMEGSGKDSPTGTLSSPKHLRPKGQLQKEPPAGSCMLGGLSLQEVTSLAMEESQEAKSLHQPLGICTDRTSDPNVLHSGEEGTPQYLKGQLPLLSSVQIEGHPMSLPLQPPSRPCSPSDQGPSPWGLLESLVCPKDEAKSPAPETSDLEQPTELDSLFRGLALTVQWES

UniProt Q80XZ4, sequence (Q80XZ4 16-581): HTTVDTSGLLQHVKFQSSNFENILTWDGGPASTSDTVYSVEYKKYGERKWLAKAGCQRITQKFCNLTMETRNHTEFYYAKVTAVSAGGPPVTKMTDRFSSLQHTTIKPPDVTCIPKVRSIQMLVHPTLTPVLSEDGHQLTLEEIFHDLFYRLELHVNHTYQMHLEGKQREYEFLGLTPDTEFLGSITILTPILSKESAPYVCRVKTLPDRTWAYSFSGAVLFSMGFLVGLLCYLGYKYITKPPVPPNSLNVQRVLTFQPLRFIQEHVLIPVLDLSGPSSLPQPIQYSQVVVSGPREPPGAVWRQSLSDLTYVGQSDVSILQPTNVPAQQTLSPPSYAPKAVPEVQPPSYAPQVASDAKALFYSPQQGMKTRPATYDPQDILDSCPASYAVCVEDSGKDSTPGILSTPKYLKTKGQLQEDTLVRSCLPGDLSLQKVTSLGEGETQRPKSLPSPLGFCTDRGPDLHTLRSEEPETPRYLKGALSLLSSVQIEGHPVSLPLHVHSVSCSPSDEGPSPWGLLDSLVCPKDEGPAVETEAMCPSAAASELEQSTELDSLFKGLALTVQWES

reduction of ER stress (ERAI-sXBP1 reporter) in murine MIN6N8 cells with 0.5 mM palmitate; amount needed against recombinant mouse IL-22 [1]: 16 fold
Molecule: recombinant human IL-22 (from UniProt Q9GZX6 34-179) (ligand)

suppression of oxidative stress (nitrite production) in human LS174T cells with 0.5 mM palmitate; concentration needed against human recombinant IL-22 [2]: 64 fold
B1: recombinant mouse IL-22 (ligand, UniProt Q9JJY9 34-179, looked up)
chain: LPVNTRCKLEVSNFQQPYIVNRTFMLAKEASLADNNTDVRLIGEKLFRGVSAKDQCYLMKQVLNFTLEDVLLPQSDRFQPYMQEVVPFLTKLSNQLSSCHISGDDQNIQKNVRRLKETVKKLGESGEIKAIGELDLLFMSLRNACV

Reference: US20170143798A1
